The test system of this data set is Escherichia coli TOP10. Briefly: shrunken log2 fold change of peptide-encoding DNA abundance (4.5 h post-induction vs induction); higher = less antimicrobial activity (less host growth inhibition). The settings on record: time post-induction: 4.5 h; library: site-saturation at positions 5, 18, 19, 20.
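Note: peptides expressed intracellularly from a pBAD plasmid library in pooled LB shake-flask culture, induced with 0.3% L-arabinose, DNA abundance read by NGS, three biological replicates, DESeq2 with apeglm shrinkage.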

Consider RRIRRRPPRLPRPRPRPLDCPRP, for which the “shrunken log2 fold change” value worked out at 0.107.

In the case of RRIRCRPPRLPRPRPRPWYQPRP, the “shrunken log2 fold change” value is -0.272.

With RRIRGRPPRLPRPRPRPEGPPRP, the “shrunken log2 fold change” value was -0.0198.

For RRIRCRPPRLPRPRPRPNRNPRP, the “shrunken log2 fold change” value was -0.562.

For the sequence RRIRVRPPRLPRPRPRPPGTPRP, the “shrunken log2 fold change” value came to 0.273.

As to RRIRGRPPRLPRPRPRPDKDPRP, the “shrunken log2 fold change” value was 0.602.

As to RRIRHRPPRLPRPRPRPILDPRP, the “shrunken log2 fold change” value was determined as 0.0523.

For the sequence RRIRMRPPRLPRPRPRPTCAPRP, the “shrunken log2 fold change” value amounted to 0.827.

RRIRTRPPRLPRPRPRPSRQPRP: the “shrunken log2 fold change” value was 0.15.

On to RRIRLRPPRLPRPRPRPYPVPRP, for which the “shrunken log2 fold change” value is -0.025.

Turning to RRIRFRPPRLPRPRPRPAFFPRP, the “shrunken log2 fold change” value was found to be 0.0784.

For RRIRSRPPRLPRPRPRPSTWPRP, the “shrunken log2 fold change” value is -0.301.

Regarding RRIRYRPPRLPRPRPRPDDAPRP, the “shrunken log2 fold change” value is -0.199.

Take RRIRHRPPRLPRPRPRPKATPRP: the “shrunken log2 fold change” value was found to be 0.00379.

Take RRIRYRPPRLPRPRPRPSISPRP: the “shrunken log2 fold change” value was -0.601.

Consider RRIRWRPPRLPRPRPRPAVDPRP, for which the “shrunken log2 fold change” value came out at 0.174.

On to RRIRHRPPRLPRPRPRPQQAPRP, for which the “shrunken log2 fold change” value was -0.00588.

Take RRIRNRPPRLPRPRPRPCQPPRP: the “shrunken log2 fold change” value was -0.0231.

As to RRIRWRPPRLPRPRPRPMQSPRP, the “shrunken log2 fold change” value was 0.185.

As for RRIRVRPPRLPRPRPRPYLHPRP, the “shrunken log2 fold change” value is -0.879.

Regarding RRIRGRPPRLPRPRPRPFSNPRP, the “shrunken log2 fold change” value is 0.064.

RRIRTRPPRLPRPRPRPNMKPRP: the “shrunken log2 fold change” value is -0.526.

RRIRTRPPRLPRPRPRPQYHPRP: the “shrunken log2 fold change” value was -0.329.

For RRIRKRPPRLPRPRPRPAKKPRP, the “shrunken log2 fold change” value is 1.06.

With RRIRFRPPRLPRPRPRPSQGPRP, the “shrunken log2 fold change” value is -0.117.

Regarding RRIRFRPPRLPRPRPRPLNMPRP, the “shrunken log2 fold change” value was -0.777.

For RRIRERPPRLPRPRPRPRETPRP, the “shrunken log2 fold change” value was 0.0334.

Take RRIRIRPPRLPRPRPRPVFYPRP: the “shrunken log2 fold change” value was -0.333.

Consider RRIRMRPPRLPRPRPRPGTVPRP, for which the “shrunken log2 fold change” value was -0.071.

For RRIRPRPPRLPRPRPRPVHHPRP, the “shrunken log2 fold change” value was -0.218.

For the sequence RRIRRRPPRLPRPRPRPAFDPRP, the “shrunken log2 fold change” value turned out to be 0.522.

On to RRIRHRPPRLPRPRPRPMTTPRP, for which the “shrunken log2 fold change” value is -0.125.

For the sequence RRIRCRPPRLPRPRPRPLIYPRP, the “shrunken log2 fold change” value is -0.764.

Regarding RRIRIRPPRLPRPRPRPMLAPRP, the “shrunken log2 fold change” value was 0.0524.

Consider RRIRSRPPRLPRPRPRPAPGPRP, for which the “shrunken log2 fold change” value was 0.54.

RRIRGRPPRLPRPRPRPARGPRP: the “shrunken log2 fold change” value came out at 0.915.

With RRIRKRPPRLPRPRPRPDECPRP, the “shrunken log2 fold change” value was -0.0821.

Regarding RRIRDRPPRLPRPRPRPTLGPRP, the “shrunken log2 fold change” value was determined as 1.08.

For the sequence RRIRTRPPRLPRPRPRPDVAPRP, the “shrunken log2 fold change” value was -0.0174.

RRIRVRPPRLPRPRPRPSNGPRP: the “shrunken log2 fold change” value is -0.219.

RRIRNRPPRLPRPRPRPSPDPRP: the “shrunken log2 fold change” value was 0.0143.

For the sequence RRIRGRPPRLPRPRPRPRPWPRP, the “shrunken log2 fold change” value turned out to be 0.77.

Regarding RRIRGRPPRLPRPRPRPMFNPRP, the “shrunken log2 fold change” value is -0.192.

Take RRIRTRPPRLPRPRPRPIDQPRP: the “shrunken log2 fold change” value was -0.00192.

As to RRIRHRPPRLPRPRPRPILEPRP, the “shrunken log2 fold change” value worked out at 0.077.

On to RRIRNRPPRLPRPRPRPMKHPRP, for which the “shrunken log2 fold change” value is -0.705.

In the case of RRIRERPPRLPRPRPRPDVVPRP, the “shrunken log2 fold change” value is 0.015.

In the case of RRIRRRPPRLPRPRPRPTHQPRP, the “shrunken log2 fold change” value is 0.414.

As to RRIRLRPPRLPRPRPRPPFLPRP, the “shrunken log2 fold change” value was determined as 0.105.

RRIRQRPPRLPRPRPRPDHYPRP: the “shrunken log2 fold change” value is -0.213.

Consider RRIRARPPRLPRPRPRPFLHPRP, for which the “shrunken log2 fold change” value was 0.0154.

Consider RRIRGRPPRLPRPRPRPFPDPRP, for which the “shrunken log2 fold change” value was 0.0778.

For RRIRERPPRLPRPRPRPSQVPRP, the “shrunken log2 fold change” value is -0.0606.

Regarding RRIRRRPPRLPRPRPRPSRHPRP, the “shrunken log2 fold change” value turned out to be 0.319.

Consider RRIRERPPRLPRPRPRPDMTPRP, for which the “shrunken log2 fold change” value is 0.133.

Consider RRIRKRPPRLPRPRPRPCWNPRP, for which the “shrunken log2 fold change” value was -0.228.

RRIRARPPRLPRPRPRPMITPRP: the “shrunken log2 fold change” value turned out to be 0.312.

For RRIRYRPPRLPRPRPRPSPYPRP, the “shrunken log2 fold change” value is -0.709.

On to RRIRERPPRLPRPRPRPMHEPRP, for which the “shrunken log2 fold change” value was -0.401.

With RRIRERPPRLPRPRPRPDHPPRP, the “shrunken log2 fold change” value was -0.0179.

For RRIRARPPRLPRPRPRPWNFPRP, the “shrunken log2 fold change” value was -0.123.

For the sequence RRIRLRPPRLPRPRPRPIKYPRP, the “shrunken log2 fold change” value was 0.0258.

Take RRIRVRPPRLPRPRPRPWCFPRP: the “shrunken log2 fold change” value was -0.0951.

Take RRIRVRPPRLPRPRPRPRTQPRP: the “shrunken log2 fold change” value was found to be 0.0785.

Turning to RRIRQRPPRLPRPRPRPRAFPRP, the “shrunken log2 fold change” value stood at 0.317.

Turning to RRIRGRPPRLPRPRPRPWIYPRP, the “shrunken log2 fold change” value is -0.372.

With RRIRERPPRLPRPRPRPVREPRP, the “shrunken log2 fold change” value turned out to be 0.242.

Take RRIRKRPPRLPRPRPRPIKYPRP: the “shrunken log2 fold change” value stood at 0.0425.

RRIRGRPPRLPRPRPRPVAEPRP: the “shrunken log2 fold change” value came to 1.38.

Consider RRIRFRPPRLPRPRPRPYFFPRP, for which the “shrunken log2 fold change” value is -0.544.

Regarding RRIRPRPPRLPRPRPRPWMEPRP, the “shrunken log2 fold change” value was -0.0134.

Take RRIRARPPRLPRPRPRPTFSPRP: the “shrunken log2 fold change” value came to 0.233.

Regarding RRIRCRPPRLPRPRPRPWQDPRP, the “shrunken log2 fold change” value is -0.154.

Turning to RRIRWRPPRLPRPRPRPEGHPRP, the “shrunken log2 fold change” value is 0.792.

Take RRIRFRPPRLPRPRPRPLIDPRP: the “shrunken log2 fold change” value was -0.227.

Take RRIRYRPPRLPRPRPRPQRYPRP: the “shrunken log2 fold change” value is -0.771.

Turning to RRIRIRPPRLPRPRPRPYTAPRP, the “shrunken log2 fold change” value is -1.28.

With RRIRERPPRLPRPRPRPWMVPRP, the “shrunken log2 fold change” value is -0.685.

On to RRIRMRPPRLPRPRPRPLYGPRP, for which the “shrunken log2 fold change” value is -0.281.

On to RRIRLRPPRLPRPRPRPHDNPRP, for which the “shrunken log2 fold change” value is -0.526.

Turning to RRIRMRPPRLPRPRPRPWIRPRP, the “shrunken log2 fold change” value was -0.167.

Turning to RRIRQRPPRLPRPRPRPCQRPRP, the “shrunken log2 fold change” value was -0.0113.

For RRIRWRPPRLPRPRPRPAPDPRP, the “shrunken log2 fold change” value is 1.14.

With RRIRFRPPRLPRPRPRPCAIPRP, the “shrunken log2 fold change” value was -0.0259.

Take RRIRSRPPRLPRPRPRPTRAPRP: the “shrunken log2 fold change” value was found to be 0.738.

As for RRIRLRPPRLPRPRPRPSIAPRP, the “shrunken log2 fold change” value is -0.217.

As for RRIRQRPPRLPRPRPRPLPNPRP, the “shrunken log2 fold change” value came out at 0.0261.

Consider RRIRIRPPRLPRPRPRPVGCPRP, for which the “shrunken log2 fold change” value came to 0.166.

RRIRYRPPRLPRPRPRPEMPPRP: the “shrunken log2 fold change” value was -0.0307.

In the case of RRIRPRPPRLPRPRPRPNRGPRP, the “shrunken log2 fold change” value was found to be 0.0424.

On to RRIRLRPPRLPRPRPRPWRQPRP, for which the “shrunken log2 fold change” value was -0.121.

With RRIRCRPPRLPRPRPRPCLRPRP, the “shrunken log2 fold change” value is -0.229.

Regarding RRIRRRPPRLPRPRPRPDIGPRP, the “shrunken log2 fold change” value was -0.0303.

Turning to RRIRPRPPRLPRPRPRPDCRPRP, the “shrunken log2 fold change” value is -0.0347.

Take RRIRMRPPRLPRPRPRPGQIPRP: the “shrunken log2 fold change” value was -0.00968.

Take RRIRIRPPRLPRPRPRPLIEPRP: the “shrunken log2 fold change” value is -0.475.

In the case of RRIRCRPPRLPRPRPRPDYTPRP, the “shrunken log2 fold change” value was -0.442.

Consider RRIRHRPPRLPRPRPRPMVVPRP, for which the “shrunken log2 fold change” value stood at 0.00198.

On to RRIRVRPPRLPRPRPRPTSVPRP, for which the “shrunken log2 fold change” value is -0.0603.

As to RRIRCRPPRLPRPRPRPWRAPRP, the “shrunken log2 fold change” value was 0.0569.

In the case of RRIRPRPPRLPRPRPRPVIMPRP, the “shrunken log2 fold change” value is -0.634.

As for RRIRMRPPRLPRPRPRPYVRPRP, the “shrunken log2 fold change” value is -0.313.

Turning to RRIRWRPPRLPRPRPRPMQHPRP, the “shrunken log2 fold change” value came to 0.596.

Take RRIRIRPPRLPRPRPRPMHFPRP: the “shrunken log2 fold change” value is -0.487.

Turning to RRIRVRPPRLPRPRPRPRPLPRP, the “shrunken log2 fold change” value is 0.378.

With RRIRYRPPRLPRPRPRPRKNPRP, the “shrunken log2 fold change” value is -0.268.

On to RRIRSRPPRLPRPRPRPRVAPRP, for which the “shrunken log2 fold change” value stood at 0.179.

RRIRCRPPRLPRPRPRPTGHPRP: the “shrunken log2 fold change” value was -0.113.

With RRIRHRPPRLPRPRPRPTNKPRP, the “shrunken log2 fold change” value is -0.557.

For the sequence RRIRHRPPRLPRPRPRPFLCPRP, the “shrunken log2 fold change” value was -0.172.

Take RRIRHRPPRLPRPRPRPRENPRP: the “shrunken log2 fold change” value came out at 0.0589.

In the case of RRIRDRPPRLPRPRPRPRVYPRP, the “shrunken log2 fold change” value was determined as 0.102.

As to RRIRWRPPRLPRPRPRPNCRPRP, the “shrunken log2 fold change” value was determined as 0.0177.

Regarding RRIRCRPPRLPRPRPRPKFNPRP, the “shrunken log2 fold change” value is -0.477.

Regarding RRIRKRPPRLPRPRPRPSGMPRP, the “shrunken log2 fold change” value worked out at 0.115.

For the sequence RRIRVRPPRLPRPRPRPMQIPRP, the “shrunken log2 fold change” value was -0.0185.

Regarding RRIRERPPRLPRPRPRPGMVPRP, the “shrunken log2 fold change” value was found to be 0.217.

As for RRIRMRPPRLPRPRPRPCPMPRP, the “shrunken log2 fold change” value was -0.0993.

Consider RRIRDRPPRLPRPRPRPCNGPRP, for which the “shrunken log2 fold change” value is -0.143.

Regarding RRIRWRPPRLPRPRPRPKPDPRP, the “shrunken log2 fold change” value amounted to 0.115.

For RRIRCRPPRLPRPRPRPSHRPRP, the “shrunken log2 fold change” value is -0.508.

On to RRIRNRPPRLPRPRPRPHYVPRP, for which the “shrunken log2 fold change” value was -0.121.

Turning to RRIRERPPRLPRPRPRPTDHPRP, the “shrunken log2 fold change” value is -0.251.

As to RRIRWRPPRLPRPRPRPWCRPRP, the “shrunken log2 fold change” value is -0.000362.

On to RRIRQRPPRLPRPRPRPEYPPRP, for which the “shrunken log2 fold change” value is -0.22.

The record behind these values is the supplement of paper PMC9112550, “Optimization of the antimicrobial peptide Bac7 by deep mutational scanning” (BMC Biology, 2022).
